Experimental data reported in patent EP3689907A1.

B1: PRO592 (scFv)
scFv: DIQMTQSPSSLSASVGDRVTITCQASESIYRYLSWYQQKPGKAPKLLIYLASTLTSGVPSRFSGSGSGTDFTLTISSLQPEDFATYYCQSNFGTASTTYYNTFGGGTKLTVLGGGGGSGGGGSGGGGSGGGGSEVQLVESGGGLVQPGGSLTLSCAASGFSFSGFYYMCWVRQAPGKGLEWIGCIDTGDGTTYYASWAKGRFTISRDNSKNTVYLQMNSLRAEDTAVYYCARDAAYGGYAYPAHGMDLWGPGTLVTVSS
B2: PRO571 (scFv)
scFv: DIQMTQSPSSLSASVGDRVTITCQASESIYRYLSWYQQKPGKAPKLLIYLASTLTSGVPSRFSGSGSGTDFTLTISSLQPEDFATYYCQSNFGTASTTYYNTFGGGTKLTVLGGGGGSGGGGSGGGGSGGGGSEVQLVESGGGLVQPGGSLRLSCAASGFSFSGFYYMCWVRQAPGKGLEWIGCIDTGDGTTYYASWAKGRFTISRDNSKNTVYLQMNSLRAEDTAVYYCARDAAYGGYAYPAHGMDLWGQGTLVTVSS

Tests used:
[1] = biological target: human IL-17A (human) (UniProt Q16552); assay: IL-17A/IL-17RA competitive ELISA: biotinylated hIL-17A preincubated with scFv, binding to coated hIL-17RA; reference secukinumab
[2] = biological target: human IL-17A (human) (UniProt Q16552); assay: SPR (Biacore T200), capture setup: biotinylated human IL-17A captured with Biotin-CAPture kit, scFv as analyte
[3] = biological target: human IL-17A (human) (UniProt Q16552); assay: SPR (Biacore T200), direct setup: IL-17A amine-coupled to CM5 chip, scFv as analyte
[4] = biological target: human IL-17A (human) (UniProt Q16552); assay: IL-17A/IL-17RA competitive ELISA: biotinylated hIL-17A preincubated with scFv, binding to coated hIL-17RA
[5] = biological target: human IL-17A (human) (UniProt Q16552); assay: cell-based or functional assay

Binder | rel. IC50 (IC50, secukinumab/IC50, Test Sample) [1] | Kd [2] | koff [2] | kon [2] | Kd [3] | koff [3] | kon [3] | IC50 [4] | Neutralization of IL17A in HT-29 assay, rel. IC50* (IC50, secukinumab/IC50, Test Sample) [5] | Potency in HT-29 assay, IC50 [ng/mL] [5] | Potency in HT-29 assay, rel. IC50* (IC50, secukinumab/IC50, Test Sample) [5]
B1 | 40.9 | 367 pM | 0.000142 s⁻¹ | 387000 M⁻¹ s⁻¹ | 37.6 pM | 4.07e-05 s⁻¹ | 1.08e+06 M⁻¹ s⁻¹ | 0.9 ng/mL | 196 | 0.13 ng/mL | 196
B2 | 22.9 | 119 pM | 0.000144 s⁻¹ | 1.21e+06 M⁻¹ s⁻¹ | 40.3 pM | 4.55e-05 s⁻¹ | 1.13e+06 M⁻¹ s⁻¹ | 1.8 ng/mL | 191 | 0.1 ng/mL | 191
